B1: PKCζ: Ogt KD (protein)
parent chain: MPSRTDPKMDRSGGRVRLKAHYGGDILITSVDAMTTFKDLCEEVRDMCGLHQQHPLTLKWVDSEGDPCTVSSQMELEEAFRLVCQGRDEVLIIHVFPSIPEQPGMPCPGEDKSIYRRGARRWRKLYRANGHLFQAKRFNRGAYCGQCSERIWGLSRQGYRCINCKLLVHKRCHVLVPLTCRRHMDSVMPSQEPPVDDKNDGVDLPSEETDGIAYISSSRKHDNIKDDSEDLKPVIDGVDGIKISQGLGLQDFDLIRVIGRGSYAKVLLVRLKKNDQIYAMKVVKKELVHDDEDIDWVQTEKHVFEQASSNPFLVGLHSCFQTTSRLFLVIEYVNGGDLMFHMQRQRKLPEEHARFYAAEICIALNFLHERGIIYRDLKLDNVLLDADGHIKLTDYGMCKEGLGPGDTTSTFCGTPNYIAPEILRGEEYGFSVDWWALGVLMFEMMAGRSPFDIITDNPDMNTEDYLFQVILEKPIRIPRFLSVKASHVLKGFLNKDPKERLGCRPQTGFSDIKSHAFFRSIDWDLLEKKQTLPPFQPQITDDYGLDNFDTQFTSEPVQLTPDDEDVIKRIDQSEFEGFEYINPLLLSAEESV
B2: PKCζ: Thiamet G (protein)
parent chain: B1 parent chain
B3: PKCζ: PUGNAc (protein)
parent chain: B1 parent chain
B4: PKCζ: T408A (protein)
parent chain: B1 parent chain

Tests used:
[1] = western blot and immunostaining, anti-pT410, endogenous PKCζ; settings: glycan lost; control: control (Egfp shRNA) ESCs
[2] = western blot anti-pT410 after FGF4 stimulation; settings: glycan lost; control: control cells stimulated with FGF4
[3] = western blot anti-pT410 during PrE differentiation; settings: glycan gained; control: PrE day 4 cells without inhibitor
[4] = anti-FLAG IP, anti-pT410 blot; settings: glycan gained; control: untreated PKCζ-FLAG cells
[5] = western blot of phosphorylated PKCζ-FLAG; settings: glycan lost; control: wild-type PKCζ-FLAG

Protein	other: PKCζ Thr-410 phosphorylation [1]	other: PKCζ Thr-410 phosphorylation [2]	other: PKCζ Thr-410 phosphorylation [3]	other: PKCζ Thr-410 phosphorylation [4]	other: PKCζ phosphorylation [5]
B1	increases	increases	–	–	–
B2	–	–	decreases	decreases	–
B3	–	–	decreases	decreases	–
B4	–	–	–	–	no change
